# Experiment: soluble on expression in E. coli; label from the status in PepcDB or PDB records
row,Sequence,soluble on expression in E. coli
1,MGSDKIHHHHHHMATLGANASLYSEQHRITYYECDRTGRATLTTLIDIAVLASEDQSDALGLTTEMVQSHGVGWVVTQYAIDITRMPRQDEVVTIAVRGSAYNPYFAYREFWIRDADGQQLAYITSIWVMMSQTTRRIVKILPELVAPYQSEVVKRIPRLPRPISFEATDTTITKPYHVRFFDIDPNRHVNNAHYFDWLVDTLPATFLLQHDLVHVDVRYENEVKYGQTVTAHANILPSEVADQVTTSHLIEVDDYYCCEVTIQWRTLPEPIQ,not soluble
2,MMINFEAIIGIEVHVVLNTATKMFSPAPNQAQNATPNQFINAIDLGLPGTMPQVNEQAVQKALILADALNMQRVQPVLVFDRKHYFYQDLPKGFQITQQNFPIAQNGYVEIVENNKAQRIIIERFHLEEDTAKQHFVDGQILLDFNRCGAPLIEVVTAPVIKSAKQSKAYLQKLRQILIVNNISNAKLEDGSMRSDCNVSVRLKGQTAFGTKVEIKNINSLNNVEKAIDLEIARQVKALIKGEPVQQVTLTYDDKTNTNVFMRKKDNSVDYRYFIEPNIMSSNIDELLQKPNKAFNLTEFFTKLKEAGVNEQLNQLVVDDLTLFNAYTKINSVINSPQDTIRWLCIELMGQLNKLQKPLKDKTIDHLIILIQMVQKGTVNQKQAKQLIELMLDNGQDPQSLAKLHNLEQITDEKQLTQIIQQIFKENEGEILKNLDRVERIQKLIIGQVMQRTHNRANPQQVFIIVEKLLHDFSERAS,not soluble
3,MPAGANSRTPATDFVQDYAAKRQAQMERARQLREDRLQQQQQQRQSSPKTSGGGNAYNSSPTYTAVPSASGGGTATAAPTSRQPPPPSLNVPRSRHVTPGHDSADSGSSPGKCGDGCVLYIKEQDFKQATQAGIITPDQARQLWAMLSNQIIRVCSPSAHANAVSVSSLLALSNNSYNSSGWAAGGPQSTGGSEFGASISLESLRTSIAYFKREQQRLQQQGGGGAAGAAHGSNAQGRHPLSSSPPALSNTVGQPLSQSRGLPQRQLQYDGNANSDYCRNDGAANDNEQRALGAPMPLRGSGGSGGGGRGGRPAWNSDVEVRHEDDYDDDRNRHAPSSMSTMNSGAAALKKPRTGRTNTVRPAAKGPAASSSPAAGASGVLGTSAQGRGYGSDNEEAGNNAYMPQQPSSAVPRGAKAGGSGAASRRPPASRPTAPPPSSGAPVNLDDVPVGGGGGGGGGMNDWANAYPPGMVPPTSTGGNDAIAAEAAAAAQEPMQECRTCGRRFRISVVMRHEALCRNQANKPRKVFNMREQRLDGVEGIKEVQRTAARSGGGGGGRGAGGGGGRGGGADAAAGAAKGKLPKWKVQHEQFQAAMRAVRQQKEAGGGFGSGRMAPPPAPIPEEYDDRVPCPHCGRKFAQDVAARHIPKCATTIAKPKGIRPIRR,not soluble
4,MTLAVLASRAIAGWQAPAVRVETHLGSGLPAFAIVGLPDVEVRESRERVRAAIQNSGFDFPPGRITVNLSPADLPKASARFDLPIALGILLASGQVAASAAQTAALPDCVWAAELSLSGALVPLAAPLALALAVAREQPGATLVLPAGSAAVAAWVPGIRVLAAHTLGEAAAYLAGHAELAPAERRSWPEAEPGPCLSDVRGQPAARRALEVAAAGGHSLLMCGPPGAGKSMLAQRLPGLLPPLEQRQALEVAAIAGAGGAPEVLRGQPPFRAPHHSASAAALVGGGARPRPGEISLAHHGVLFLDELPEFERRALESLREPLETGKVVISRALHSVEYPAVFQLVAAMNPCPCGWRGHASKACRCTPDQVRRYAARVSGPLVDRIDLWIELPATEPQWLAEPPGEPSLPVRERVARCRQRQLARQGCLNAKLSGPALDAHCALGAAARTLLQQAMRRLGGSARAAHRALRVARTLADLAHEPEIGAAHIAEAVQYRRPT,not soluble
5,GPGSMSLASPSSLPPIALATQRLRTFAAQEEQAHGLTTSTALEEWATQSFEAETERINRELVQRRSQASVTFLPALYMRGRDPAADETTRLLHSTCKAFELDLRFKEIEKLDEMHAHLWTLLSAGDRTSISMEAYEQLLHDFNEWAAEHYGAQLLPPPSTVWDVSEDEDECILCRREVKEDDHEKSGGGNSSPSMSPLRPPVSLARPLSASTPPVLAATKAAPNDAPFTSGTRGASWDAVLQHVKRYRDQQRSDTSASASSFMRSHAHFEHLLRLAEDQPALGNVLYLCSVPPPRPDVQLFLSCPRNAERAVEIAAIYQTFAKQVSLVKCEAELIMWDSNNDGRLSEDEVENYVRDLAPRIAALQAMSKDMLPFYCCTVSRRLFWDLDPGNRGVLRIHSLLHSGIMDEWVSLQLMTEDDTQNWFGALVTQQLYNKFVLLDTRNTGTLNVENLRGYKKGLPTVLDDGLPPDVSPLCSLFIDRYFETNTLMTRSEMDYRKFVDFVIAVELLPQCSRPYFFWNILDMEGTGVLTPMIVNQFFRETHAKLVAAGLDVPSRETVVQEVFDLIEKAESLLITRDEFVRSPQAGLFVALLIDCLSFWTYENREQR,not soluble
6,MSLEDYSVVNRFESHGGGWGYSAHSVEAIRFSADTDILLGGLGLFGGRGEYTAKIKLFELGPDGGDHETDGDLLAETDVLAYDCAAREKYAMMFDEPVLLQAGWWYVAWARVSGPSSDCGSHGQASITTDDGVIFQFKSSKKSNNGTDVNAGQIPQLLYRLPTSDGSTSKGKQQTSEPVHILKRSFARTVSVECFESLLSILHWSWTTLVLGVEELRGLKGFQFTATLLDLERLRFVGTCCLRLLRVYTCEIYPVSATGKAVVEETSKLAECIGKTRTLLRKILSEGVDHCMVKLDNDPQGYLSQPLRLLEAVLQECHNTFTACFHSFYPTPALQWACLCDLLNCLDQEANFKTSSSRLLAAVMSALCHTSVKLTSLFPIAYDGEVLLRSIVKQVSTENDSTLVHRFPLLVGHMEKLSQSEENISGMTSFREVLEKMLVIVVLPVRNSLRRESELFSSHLVSNTCGLLASIVSELTASALGSEVDGLNSLHSVKASANRFTKTSQGRSWNTGNGSPDAICFAVDKPGIVVVGFAVYGGGGIHEYELEVLVDDSEHAGDSTHSHRWTSLELVKGTYTTDDSPSDIAEIRLDKVVPLKENVKYAVRLRNYGSRTANGDGGMTTVQCPDGVTFTFSTCSLSSNGTNQTRGQIPQILYYRSEEGHHHHHH,not soluble
7,MGSSHHHHHHHSSGRENLYFQGHMEGVRWAFSCGTWLPSRAEWLLAVRSIQPEEKERIGQFVFARDAKAAMAGRLMIRKLVAEKLNIPWNHIRLQRTAKGKPVLAKDSSNPYPNFNFNISHQGDYAVLAAEPELQVGIDIMKTSFPGRGSIPEFFHIMKRKFTNKEWETIRSFKDEWTQLDMFYRNWALKESFIKAIGVGLGFELQRLEFDLSPLNLDIGQVYKETRLFLDGEEEKEWAFEESKIDEHHFVAVALRKPDGSRHQDVPSQDDSKPTQRQFTILNFNDLMSSAVPMTPEDPSFWDCFCFTEEIPIRNGTKSLESG,soluble
8,TPTDKHGGSDTRCPLMVKILDAVKGTPAGSVALKVSQKTADGGWTQIATGVTDATGEIHNLITEQQFPAGVYRVEFDTKAYWTNQGSTPFHEVAEVVFDAHPEGHRHYTLALLLSPFSYTTTAVVSSVHE,soluble
9,MGSDKIHHHHHHENLYFQGMTEKSQEPTAALDAEQVAAYLSQHPEFFVEHDELIPELRIPHQPGDAVSLVERQVRLLRERNIEMRHRLSQLMDVARENDRLFDKTRRLVLDLLDATSLEDVVSTVEDSLRHEFQVPYVSLILFSDSSVSVGRSVSSAEAHQAIGGLLSGGKTVCGVLRPHELAFLFGESDRDEIGSAAVVSLSFQGLHGVLAIGSPDPQHYKSSLGTLFLGYVAEVLARVLPRFSSPLRSVR,soluble
10,MAHHHHHHMPYIASIDQGTTSSRCIIFDEKFTILSAHQLFHKQITPRPGWLEHDPEEIYSNCCLCLAEALKKLRSKDPKFEKVSAIGITNQRETGVAWDRKTGKPLCNAIVWSDARTYEVSNRIAKECGGGDRNFAANITGLPVSTYFTAFKFRWMLENVPAVAAARKSGSLLLGTIETWLLWKLSEGKVFLTDVSNASRTFLMNLRTQQWCDKLCQELDIPLAALPEIRSNSERYCDVVANDHGIRDALGVPTPVTGCIGDQQSALFGHIGLHKGDAKNTYGTGCFMLMNVGTEPQFSKHGLLGTIAYKLGTEPTKFALEGSVAGAGATVEWMRSNLGFFDHPMQMESIARKVGGTDGVVFVPAFGGLLAPYWDPTARGTLVGMTYKTNKSHIIRAALEAISMQVNAVMLAMKEDSGVEMNCLRVDGGLTRSRLLMEMQADILGVNLYVPHLTETTALGAALCAGLAVGVWKSVEEMQKTAKEHLSGETVNPITTDEQVRKARLEAWNAAVKLSRWAKL,soluble
11,AGKPVLHYFNARGRMECIRWLLAAAGVEFEEKFIQSPEDLEKLKKDGNLMFDQVPMVEIDGMKLAQTRAILNYIATKYDLYGKDMKERALIDMYSEGILDLTEMIGQLVLCPPDQREAKTALAKDRTKNRYLPAFEKVLKSHGQDYLVGNRLTRVDIHLLEVLLYVEEFDASLLTPFPLLKAFKSRISSLPNVKKFLQPGSQRKPPMDAKQIQEARKAFKIQ,soluble
12,MQLDPPEPGFYDDPDLSYSIEKSITNWDEKRHEWFKSHPSFKPGSENRILMVTGSQSSPCKNPIGDHLLLLRCFKNKVDYARIHGHDIFYSNSLLHPKMNSYWAKLPVVKAAMLAHPFMD,not soluble
13,MGSDKIHHHHHHMTTSKRVAIIGAGPSGLAQLRAFQSAAAKGEEIPEIVCFEKQDNWGGLWNYTWRTGLDENGEPVHCSMYRYLWSNGPKEGLEFADYSFEEHFGKQIASYPPRAVLFDYIEGRVLKANVRDWIRFSTAVRWIDYNDETGLFKVTVHDHTNDRVYSEEFDHVICASGHFSTPNVPHYEGFETFNGRLVHAHDFRDAREFAGKDILVVGSSYSAEDIGSQCWKYGAKSITSCYRSAPMGFKWPDNWEEKPALVKVDKNTVFFSDGTSREVDAIILCTGYKHFFNFLPDDLRLKTANRLATADLYKGVVYVHNPKMFYLGMQDQWFTFNMFDAQAWWVRDAIMGKIDLSNVTKEQMLADVTERETREEASDDVKYAIRYQADYVKELVAETDYPSFDIDGACEAFFQWKKHKGEDIMAFRNNSYTSVITGTLAPVHHTPWKDALDDSMEAYLRN,not soluble
14,MGSDKIHHHHHHMSELNAQQVVDYLQHHPDFLIQHPELLAQLELQQQAQGATSLVHIQQRQLREHNTLLKNQIASMNKYAAQNEQVYRLFSLCHQQLCSNNDFDALASNLQDIICSNPDISDCRLVKYDTKYAQLVEHRLSNSGHYLGRINQQERDLLFSDTAQSTAIYLIGDINKPIAILAFASNNANHFEPAQDTLFVLDFVVALQSRLLELA,not soluble
15,GQSLPSVSKEIRELSNRTEQQTSLSDRKESEAFALETVRMISDRTLYLFRLAEGRSWEADVRGRSWASRVLPIVHRLKHGGIPWKQYLSSDSLCMEARLYGKYDSVTGAYRRGVVSFRSDIPQRNKVDDLTALALLGENVYAEEFDFGNRQIFPNPIRREAEAFYTYRLDSLYEKDGITYRRIAFRGLSGLNHGTVTIDATHGQLAILEMRVMMKGVITESYRVELGEVEPGLFLPIGLSVVIDRNRLWASLHNGYSASISYPGEQLDKTVLPVYTPTDSSRYRLPDELPVAPVWAVRSSFGREDSSTYWKNVVVGRDHTLHQHVPWHRALAWGHKYRIGERWRLGNEGLVWALFYYNYADHLWLGQSLTAIYDMAPGIRWEIKPGLYYVTKRRKAVWTLDSKLYYSPPQRGLLQLSAGHRSFDLYSTRERIDQLTDLMMELLNGQGPTTRYDDKFVRLTNSIDLLPKLNVETSVMLAERNPLPHGET,not soluble
